Among the data in the Human Domainome abundance scans (Beltran et al. 2025) are abundance fitness values, retold here.

To fix the notation:
B1: Chromodomain-helicase-DNA-binding protein 3, residues 374 to 426; numbered along this chain, Q12873 (parent)
chain: YETDHQDYCEVCQQGGEIILCDTCPRAYHLVCLDPELDRAPEGKWSCPHCEKE

± gives the uncertainty stated by the source.

In this data set the parent is B1. Put plainly: abundance fitness (aPCA) (normalised: wild type 0, dead -1); higher = more abundant; growth selection in yeast, the domain comes from the species named. The settings on record: Homo sapiens.
Regarding R39N, the abundance fitness was 0.034 ± 0.21. Regarding R39H, the abundance fitness was -0.248 ± 0.25. Consider R39A, for which the abundance fitness worked out at 0.068 ± 0.14. As for T23K, the abundance fitness was -0.696 ± 0.19. Consider Q6E, for which the abundance fitness is -0.227 ± 0.22. In the case of C9P, the abundance fitness was -0.756 ± 0.14. For the variant C9N, the abundance fitness is -0.353 ± 0.15. Turning to C9Y, the abundance fitness is -0.74 ± 0.11. For C9V, the abundance fitness was -0.633 ± 0.14. Under C9G stands -0.669 ± 0.14; under Q13H, 0.059 ± 0.11. To Q13M belongs 0.084 ± 0.09. To Y8K belongs 0.141 ± 0.12. Regarding Y8G, the abundance fitness was 0.165 ± 0.094.

As for Y8H, the abundance fitness worked out at 0.461 ± 0.13.

Turning to Y8C, the abundance fitness was -0.211 ± 0.18. On to E17Y, for which the abundance fitness is -0.031 ± 0.17. For E17C, the abundance fitness was -0.037 ± 0.11.

For the variant H5V, the abundance fitness amounted to 0.142 ± 0.092. Turning to C24S, the abundance fitness was -0.617 ± 0.15. Regarding C24D, the abundance fitness is -0.754 ± 0.22. On to C24A, for which the abundance fitness was -0.799 ± 0.23.

Take C24T: the abundance fitness was -0.687 ± 0.17.

Take C24W: the abundance fitness was -1.12 ± 0.19. As to S46E, the abundance fitness was -0.122 ± 0.12. For the variant S46D, the abundance fitness is -0.135 ± 0.14.

A40V: the abundance fitness was -0.081 ± 0.1.

Take A40T: the abundance fitness is -0.162 ± 0.17.

As to A40E, the abundance fitness stood at 0.13 ± 0.12.

In the case of L33P, the abundance fitness is -0.427 ± 0.12.

Regarding L33E, the abundance fitness is -0.365 ± 0.18. On to L20I, for which the abundance fitness is 0.076 ± 0.17. Under L20N stands 0.101 ± 0.15; under L20Q, -0.143 ± 0.13. In the case of L20T, the abundance fitness was determined as 0.262 ± 0.098. On to G15D, for which the abundance fitness was -0.21 ± 0.27. With G15T, the abundance fitness came out at 0.088 ± 0.18. In the case of H49M, the abundance fitness was -0.797 ± 0.45.

On to H49G, for which the abundance fitness was -0.033 ± 0.093. For the variant H49L, the abundance fitness is -0.128 ± 0.11. As to H49R, the abundance fitness is -0.143 ± 0.1. In the case of H49D, the abundance fitness is -0.185 ± 0.15.

With H49I, the abundance fitness is 0.221 ± 0.39.

Turning to H49K, the abundance fitness was -0.127 ± 0.2. Regarding H29E, the abundance fitness was -0.872 ± 0.14. Under H29Y stands -1.1 ± 0.19. In the case of H29L, the abundance fitness is -0.763 ± 0.12. To H29A belongs -0.745 ± 0.11. Take Y28Q: the abundance fitness was -0.445 ± 0.14. Turning to Y28H, the abundance fitness was 0.148 ± 0.13. On to Y28M, for which the abundance fitness worked out at 0.219 ± 0.14. For the variant Y28D, the abundance fitness was -0.593 ± 0.18. Y28R: the abundance fitness is -0.256 ± 0.1. Regarding K44P, the abundance fitness was -0.264 ± 0.16.

Turning to T3Y, the abundance fitness was 0.113 ± 0.14. For the variant T3C, the abundance fitness was -0.048 ± 0.12. Consider T3F, for which the abundance fitness is 0.236 ± 0.14.

On to L30C, for which the abundance fitness was found to be 0.072 ± 0.12. Under L30T stands -0.067 ± 0.11; under L30Y, 0.098 ± 0.13; under L30H, -0.059 ± 0.13.

In the case of E53V, the abundance fitness is -0.309 ± 0.17. Under I19Y stands 0.117 ± 0.18. Under I19H stands -0.111 ± 0.25; under I19S, -0.162 ± 0.11. Consider I19V, for which the abundance fitness is -0.153 ± 0.1.

With I19G, the abundance fitness is -0.177 ± 0.087. In the case of C50I, the abundance fitness was -0.564 ± 0.28.

With C50D, the abundance fitness was -0.176 ± 0.26. In the case of E42F, the abundance fitness is -0.296 ± 0.17. Regarding E42V, the abundance fitness is -0.044 ± 0.1.

Take E42D: the abundance fitness was -0.484 ± 0.19.

E42S: the abundance fitness is -0.06 ± 0.12. As to R26G, the abundance fitness is -0.046 ± 0.091. With R26Y, the abundance fitness was -0.148 ± 0.15. For the variant R26D, the abundance fitness is -0.159 ± 0.15. Consider D38N, for which the abundance fitness is -0.552 ± 0.16.

On to D38P, for which the abundance fitness is -0.129 ± 0.15. With D38M, the abundance fitness is -0.416 ± 0.18. Under D38V stands 0.011 ± 0.12.

Take D38W: the abundance fitness was -0.319 ± 0.18. To C21L belongs -0.74 ± 0.13; to C21K, -0.846 ± 0.2; to C21T, -0.381 ± 0.17. Under C21I stands -0.818 ± 0.21; under C21S, -0.569 ± 0.13; under Q14G, -0.151 ± 0.15. P25H: the abundance fitness is -0.249 ± 0.26. In the case of P25K, the abundance fitness was -0.385 ± 0.18. For P25T, the abundance fitness is -0.004 ± 0.14. Take D7R: the abundance fitness was -0.289 ± 0.13. Take D7M: the abundance fitness is -0.105 ± 0.29. Regarding D7P, the abundance fitness amounted to 0.134 ± 0.26. For the variant D7W, the abundance fitness was -0.767 ± 0.33.

For the variant K52H, the abundance fitness is -0.38 ± 0.28. Consider W45T, for which the abundance fitness is -0.143 ± 0.17. In the case of W45K, the abundance fitness was -0.072 ± 0.16. Turning to W45I, the abundance fitness was -0.221 ± 0.17. Under E10G stands -0.139 ± 0.089; under E10S, 0.064 ± 0.097. E10Q: the abundance fitness came to 0.116 ± 0.18. In the case of E10C, the abundance fitness turned out to be 0.046 ± 0.12.

For the variant E10Y, the abundance fitness amounted to 0.158 ± 0.12. For the variant Y1G, the abundance fitness was 0.416 ± 0.21.

With Y1D, the abundance fitness was -0.2 ± 0.19.

As for P41L, the abundance fitness worked out at 0.015 ± 0.1. P41R: the abundance fitness was -0.093 ± 0.092.

As for P41W, the abundance fitness is -0.317 ± 0.12. Regarding L37W, the abundance fitness is -0.298 ± 0.2.

For L37N, the abundance fitness was -0.189 ± 0.24. In the case of L37K, the abundance fitness is -0.116 ± 0.18. As to L37Y, the abundance fitness was 0.073 ± 0.15. Under L37V stands -0.143 ± 0.12. Under L37C stands -0.142 ± 0.14; under L37D, -0.228 ± 0.17; under G16L, -0.097 ± 0.11. Turning to G16N, the abundance fitness was 0.157 ± 0.16. For the variant G16W, the abundance fitness came out at 0.025 ± 0.12. As to G16K, the abundance fitness is 0.346 ± 0.13.

With C47P, the abundance fitness was -1.05 ± 0.22.

Take C47K: the abundance fitness is -1.02 ± 0.28. On to C47A, for which the abundance fitness is -1.06 ± 0.15. On to C32Q, for which the abundance fitness was -0.821 ± 0.15.

Turning to E2N, the abundance fitness turned out to be 0.526 ± 0.11.

Regarding E2S, the abundance fitness worked out at 0.125 ± 0.098. Take E2L: the abundance fitness was found to be 0.282 ± 0.09. Under E2V stands -0.232 ± 0.089.

E2M: the abundance fitness is 0.549 ± 0.18. Under C12T stands -0.813 ± 0.12; under C12E, -0.83 ± 0.16; under C12Y, -0.871 ± 0.13.

Take C12L: the abundance fitness is -0.866 ± 0.099. To C12F belongs -0.903 ± 0.23. With V11K, the abundance fitness was 0.258 ± 0.087.

Turning to V11N, the abundance fitness turned out to be 0.182 ± 0.094. Take V11T: the abundance fitness came out at 0.269 ± 0.078. With V11A, the abundance fitness is -0.143 ± 0.079. Consider E51Q, for which the abundance fitness was -0.533 ± 0.2.

On to E51F, for which the abundance fitness was -0.205 ± 0.23.

Consider D22I, for which the abundance fitness was -0.021 ± 0.24.

Take D22G: the abundance fitness is -0.191 ± 0.16. D22L: the abundance fitness was -0.171 ± 0.14.

As to D22R, the abundance fitness amounted to 0.053 ± 0.14. P35S: the abundance fitness is -0.068 ± 0.11. To P35G belongs -0.044 ± 0.1; to P35W, -0.167 ± 0.16; to P35M, -0.095 ± 0.15. As to P35D, the abundance fitness is 0.039 ± 0.14. As to D34Q, the abundance fitness was -0.112 ± 0.15. Under D34K stands -0.079 ± 0.12; under D34A, -0.198 ± 0.082; under D34E, -0.011 ± 0.11. Under D34W stands -0.747 ± 0.22; under D34P, -0.089 ± 0.11. In the case of D34L, the abundance fitness was -0.083 ± 0.092. Under D34M stands -0.494 ± 0.13. Regarding E36G, the abundance fitness was -0.009 ± 0.1.

E36D: the abundance fitness was -0.507 ± 0.2. With E36S, the abundance fitness was -0.335 ± 0.13.

As for E36M, the abundance fitness is -0.024 ± 0.2.

As for E36A, the abundance fitness is -0.029 ± 0.13.

Regarding E36W, the abundance fitness was -0.478 ± 0.2. With I18H, the abundance fitness amounted to 0.063 ± 0.16. Turning to I18L, the abundance fitness was -0.022 ± 0.099.

As for I18N, the abundance fitness was -0.218 ± 0.18. As to I18W, the abundance fitness was -0.152 ± 0.14. As for P48S, the abundance fitness is -0.217 ± 0.11.
